Test results reported in article doi:10.1101/2021.02.25.432866 (bioRxiv, 2021).

Experiments:
[1] = target: mutant Huntingtin exon 1 fragment with Q71, unlabelled (Q71); assay: FRET or BRET
FRET or BRET = target: the molecule itself; assay: FRET or BRET

Chain of mutant Huntingtin exon 1 fragment with Q71, unlabelled (Q71) (P42858 whole entry, change not shown, the tested form may be a part): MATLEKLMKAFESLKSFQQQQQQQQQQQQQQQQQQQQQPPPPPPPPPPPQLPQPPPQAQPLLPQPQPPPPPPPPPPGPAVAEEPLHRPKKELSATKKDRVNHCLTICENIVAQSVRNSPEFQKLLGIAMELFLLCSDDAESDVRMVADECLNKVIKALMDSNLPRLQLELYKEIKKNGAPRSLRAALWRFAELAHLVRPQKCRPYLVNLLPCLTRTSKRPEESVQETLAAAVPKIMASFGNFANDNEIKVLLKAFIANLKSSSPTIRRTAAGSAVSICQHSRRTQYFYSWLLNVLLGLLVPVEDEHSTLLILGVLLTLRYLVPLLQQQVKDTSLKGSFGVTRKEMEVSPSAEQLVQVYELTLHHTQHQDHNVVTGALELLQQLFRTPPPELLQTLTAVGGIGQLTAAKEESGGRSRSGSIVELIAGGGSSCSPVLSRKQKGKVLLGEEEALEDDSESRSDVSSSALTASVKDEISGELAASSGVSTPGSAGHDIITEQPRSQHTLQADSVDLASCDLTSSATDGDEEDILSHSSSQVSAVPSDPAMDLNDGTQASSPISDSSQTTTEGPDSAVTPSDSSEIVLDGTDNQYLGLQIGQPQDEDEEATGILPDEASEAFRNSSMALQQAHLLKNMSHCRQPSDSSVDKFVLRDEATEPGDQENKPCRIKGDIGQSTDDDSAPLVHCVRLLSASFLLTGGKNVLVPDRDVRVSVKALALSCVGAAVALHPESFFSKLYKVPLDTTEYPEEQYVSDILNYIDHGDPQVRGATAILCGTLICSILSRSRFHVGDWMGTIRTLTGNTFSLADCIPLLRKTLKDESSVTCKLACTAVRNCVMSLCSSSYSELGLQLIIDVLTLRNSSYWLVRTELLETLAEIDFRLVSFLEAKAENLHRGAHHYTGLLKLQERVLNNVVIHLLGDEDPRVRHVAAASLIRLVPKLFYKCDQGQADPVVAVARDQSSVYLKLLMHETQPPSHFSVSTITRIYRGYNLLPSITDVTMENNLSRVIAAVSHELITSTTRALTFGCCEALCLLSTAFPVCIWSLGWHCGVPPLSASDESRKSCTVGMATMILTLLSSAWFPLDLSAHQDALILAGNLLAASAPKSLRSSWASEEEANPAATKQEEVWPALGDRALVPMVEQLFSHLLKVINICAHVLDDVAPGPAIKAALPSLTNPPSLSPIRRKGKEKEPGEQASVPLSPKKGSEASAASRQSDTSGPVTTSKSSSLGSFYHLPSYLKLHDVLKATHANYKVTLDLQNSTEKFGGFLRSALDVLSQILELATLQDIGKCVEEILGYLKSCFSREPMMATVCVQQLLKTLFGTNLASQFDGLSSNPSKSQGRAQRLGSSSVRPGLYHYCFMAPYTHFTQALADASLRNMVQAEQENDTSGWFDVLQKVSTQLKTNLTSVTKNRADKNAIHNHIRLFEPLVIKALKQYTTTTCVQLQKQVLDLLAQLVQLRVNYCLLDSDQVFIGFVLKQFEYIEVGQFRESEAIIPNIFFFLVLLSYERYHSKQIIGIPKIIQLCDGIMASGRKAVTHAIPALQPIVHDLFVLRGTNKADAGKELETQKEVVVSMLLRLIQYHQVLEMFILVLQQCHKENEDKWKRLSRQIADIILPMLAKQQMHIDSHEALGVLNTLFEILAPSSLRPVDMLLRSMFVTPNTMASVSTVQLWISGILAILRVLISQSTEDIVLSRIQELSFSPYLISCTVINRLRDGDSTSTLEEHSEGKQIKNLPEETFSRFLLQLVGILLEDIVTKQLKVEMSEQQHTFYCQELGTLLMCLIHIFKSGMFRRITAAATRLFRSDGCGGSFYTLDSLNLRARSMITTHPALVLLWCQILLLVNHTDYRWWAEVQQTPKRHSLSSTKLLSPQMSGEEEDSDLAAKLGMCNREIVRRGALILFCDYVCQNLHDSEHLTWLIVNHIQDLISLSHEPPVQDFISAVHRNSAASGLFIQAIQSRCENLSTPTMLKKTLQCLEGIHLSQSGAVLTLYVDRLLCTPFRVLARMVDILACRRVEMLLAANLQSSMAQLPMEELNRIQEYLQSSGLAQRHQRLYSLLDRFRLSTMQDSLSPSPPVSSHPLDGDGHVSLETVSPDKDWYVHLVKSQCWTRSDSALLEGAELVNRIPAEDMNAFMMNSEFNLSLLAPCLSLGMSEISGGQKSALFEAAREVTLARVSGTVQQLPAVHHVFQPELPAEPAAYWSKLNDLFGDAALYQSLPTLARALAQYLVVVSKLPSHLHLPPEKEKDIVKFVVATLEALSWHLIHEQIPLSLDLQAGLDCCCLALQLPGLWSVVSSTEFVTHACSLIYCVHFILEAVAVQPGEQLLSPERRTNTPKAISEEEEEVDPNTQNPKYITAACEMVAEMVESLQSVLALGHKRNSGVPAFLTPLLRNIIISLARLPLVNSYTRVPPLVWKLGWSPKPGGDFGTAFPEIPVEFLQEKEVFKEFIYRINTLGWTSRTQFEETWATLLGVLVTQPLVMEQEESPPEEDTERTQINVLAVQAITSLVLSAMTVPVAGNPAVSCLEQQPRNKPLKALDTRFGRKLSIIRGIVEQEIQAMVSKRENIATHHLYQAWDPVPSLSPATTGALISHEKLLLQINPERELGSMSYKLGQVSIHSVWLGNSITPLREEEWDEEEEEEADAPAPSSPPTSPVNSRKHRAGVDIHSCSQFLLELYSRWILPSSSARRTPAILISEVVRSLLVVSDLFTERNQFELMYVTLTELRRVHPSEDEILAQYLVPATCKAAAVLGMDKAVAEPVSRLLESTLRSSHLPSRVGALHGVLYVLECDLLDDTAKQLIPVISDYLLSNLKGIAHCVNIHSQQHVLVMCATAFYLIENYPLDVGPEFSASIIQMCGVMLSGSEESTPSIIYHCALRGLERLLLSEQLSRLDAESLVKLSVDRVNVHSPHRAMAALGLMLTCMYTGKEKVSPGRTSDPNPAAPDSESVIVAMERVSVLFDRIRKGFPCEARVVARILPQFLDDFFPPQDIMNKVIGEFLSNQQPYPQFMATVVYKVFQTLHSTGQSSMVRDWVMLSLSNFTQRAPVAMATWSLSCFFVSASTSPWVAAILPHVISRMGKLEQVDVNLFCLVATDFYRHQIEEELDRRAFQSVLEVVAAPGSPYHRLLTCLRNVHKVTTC

DNAJB6b fused to mVenus-mCherry at its N-terminus (VC-DNAJB6) (from UniProt O75190-2 1-241) (natural protein)
FRET/donor ratio in aggregates with Q71 [1]: 0.6

B1: FUS R521C fused to mVenus-mCherry at its N-terminus (VC-FUSR521C) (natural protein)
chain: MASNDYTQQATQSYGAYPTQPGQGYSQQSSQPYGQQSYSGYSQSTDTSGYGQSSYSSYGQSQNTGYGTQSTPQGYGSTGGYGSSQSSQSSYGQQSSYPGYGQQPAPSSTSGSYGSSSQSSSYGQPQSGSYSQQPSYGGQQQSYGQQQSYNPPQGYGQQNQYNSSSGGGGGGGGGGNYGQDQSSMSSGGGSGGGYGNQDQSGGGGSGGYGQQDRGGRGRGGSGGGGGGGGGGYNRSSGGYEPRGRGGGRGGRGGMGGSDRGGFNKFGGPRDQGSRHDSEQDNSDNNTIFVQGLGENVTIESVADYFKQIGIIKTNKKTGQPMINLYTDRETGKLKGEATVSFDDPPSAKAAIDWFDGKEFSGNPIKVSFATRRADFNRGGGNGRGGRGRGGPMGRGGYGGGGSGGGGRGGFPSGGGGGGGQQRAGDWKCPNPTCENMNFSWRNECNQCKAPKPDGPGGGPGGSHMGGNYGDDRRGGRGGYDRGGYRGRGGDRGGFRGGRGGGDRGGFGPGKMDSRGEHRQDCRERPY
FRET/donor ratio in foci (FRET or BRET): ~0.66
